Assay results reported in article PMC5045189 (2016).

Target: T1, Staphylococcus aureus manganese transporter protein MntC, wild type, recombinant (Staphylococcus aureus, UniProt W8TNQ9 1-309)
T1 chain: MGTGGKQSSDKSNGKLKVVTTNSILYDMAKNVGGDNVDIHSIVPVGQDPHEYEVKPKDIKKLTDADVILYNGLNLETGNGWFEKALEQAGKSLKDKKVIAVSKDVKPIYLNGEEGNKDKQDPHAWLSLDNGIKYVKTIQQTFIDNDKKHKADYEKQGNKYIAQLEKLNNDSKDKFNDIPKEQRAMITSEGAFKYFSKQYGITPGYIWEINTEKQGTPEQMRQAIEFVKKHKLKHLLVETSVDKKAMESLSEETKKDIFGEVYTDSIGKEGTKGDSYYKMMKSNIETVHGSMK
Assay: ELISA

B1: monoclonal antibody mAB 305-78-7 (intact antibody, interference group 2) (antibody, V domains shown)
VH: QVQLQQSGAELARPGASVKMSCKASGYTFTRYTMHWVQQRPGQGLEWIGYINPSSDYTKYNQKFKDKATMTADKSSSTAYMQLSSLTSEDSAVYYCARKEDVGYWYFDFWGTGTTVTVSS
VL: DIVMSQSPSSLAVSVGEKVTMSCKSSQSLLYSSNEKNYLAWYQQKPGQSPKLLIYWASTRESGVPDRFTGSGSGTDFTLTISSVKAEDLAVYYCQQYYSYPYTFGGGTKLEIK
Kd: 1.3 nM
